In paper PMC10528418 (Molecular cell, 2023):

T1: TFIIIC subunit τ138 (S. cerevisiae, UniProt P34111 1-1160)
T1 sequence (looked up): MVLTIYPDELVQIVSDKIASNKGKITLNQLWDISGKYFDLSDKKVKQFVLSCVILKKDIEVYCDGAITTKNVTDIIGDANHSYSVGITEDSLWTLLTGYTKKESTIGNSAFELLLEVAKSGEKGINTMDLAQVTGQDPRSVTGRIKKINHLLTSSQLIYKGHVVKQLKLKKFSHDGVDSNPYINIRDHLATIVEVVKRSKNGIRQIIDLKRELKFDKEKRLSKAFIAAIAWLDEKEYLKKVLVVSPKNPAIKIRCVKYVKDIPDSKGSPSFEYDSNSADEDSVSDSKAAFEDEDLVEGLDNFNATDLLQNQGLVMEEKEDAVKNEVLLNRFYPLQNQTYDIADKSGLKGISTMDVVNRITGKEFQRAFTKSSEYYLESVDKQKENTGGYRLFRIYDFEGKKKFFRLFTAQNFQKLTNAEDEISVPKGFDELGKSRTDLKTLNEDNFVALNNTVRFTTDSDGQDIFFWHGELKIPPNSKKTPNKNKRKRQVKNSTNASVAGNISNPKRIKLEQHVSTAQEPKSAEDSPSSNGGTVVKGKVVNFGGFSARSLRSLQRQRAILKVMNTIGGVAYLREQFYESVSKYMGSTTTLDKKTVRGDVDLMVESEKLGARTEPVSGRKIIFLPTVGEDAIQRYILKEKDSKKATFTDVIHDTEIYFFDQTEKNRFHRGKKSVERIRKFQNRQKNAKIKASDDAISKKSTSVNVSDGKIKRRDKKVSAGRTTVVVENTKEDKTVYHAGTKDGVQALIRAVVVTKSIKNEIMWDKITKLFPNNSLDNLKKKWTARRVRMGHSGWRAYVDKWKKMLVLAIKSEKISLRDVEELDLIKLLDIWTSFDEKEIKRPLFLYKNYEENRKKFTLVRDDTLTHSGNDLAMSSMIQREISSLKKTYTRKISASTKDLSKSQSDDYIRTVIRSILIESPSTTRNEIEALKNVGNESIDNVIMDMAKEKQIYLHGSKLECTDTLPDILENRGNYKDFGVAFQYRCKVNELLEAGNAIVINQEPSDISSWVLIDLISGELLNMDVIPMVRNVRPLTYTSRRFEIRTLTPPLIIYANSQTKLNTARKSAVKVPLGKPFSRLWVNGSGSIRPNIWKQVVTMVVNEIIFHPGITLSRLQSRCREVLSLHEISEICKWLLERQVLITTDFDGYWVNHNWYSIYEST

B1: S. cerevisiae TFIIIA (natural protein)
chain: MGGEVLNNEGMPLAELKQETIPISRSESSESLNSLTSTRSSSSNRPKTYFCDYDGCDKAFTRPSILTEHQLSVHQGLRAFQCDKCAKSFVKKSHLERHLYTHSDTKPFQCSYCGKGVTTRQQLKRHEVTHTKSFICPEEGCNLRFYKHPQLRAHILSVHLHKLTCPHCNKSFQRPYRLRNHISKHHDPEVENPYQCTFAGCCKEFRIWSQLQSHIKNDHPKLKCPICSKPCVGENGLQMHMIIHDDSLVTKNWKCHICPDMSFSRKHDLLTHYGSIHTEEDIPLELKYKISDIQQLVQDHGVQLGNSKHSNEQDEEKISNRLRKRRKLTENNNVEFLQNEVDLEKRLESGENGLNLLLNTVGRKYRCFYNNCSRTFKTKEKYEKHIDKHKVHELKLKILQEKEENKTLVDQNHKEPFIIQKETQSAGDK
B2: TFIIIC subunit τ95 (natural protein, S. cerevisiae, UniProt P32367 1-649, looked up)
chain: MPVEEPLATLSSIPDSSADQAPPLIADEFTLDLPRIPSLELPLNVSTKHSSIQKAIKMCGGIEKVKEAFKEHGPIESQHGLQLYLNDDTDSDGSKSYFNEHPVIGKRVPFRDESVILKVTMPKGTLSKNNNSVKDSIKSLKDSNKLRVTPVSIVDNTIKFREMSDFQIKLDNVPSAREFKSSFGSLEWNNFKSFVNSVPDNDSQPQENIGNLILDRSVKIPSTDFQLPPPPKLSMVGFPLLYKYKANPFAKKKKNGVTEVKGTYIKNYQLFVHDLSDKTVIPSQAHEQVLYDFEVAKKTKVYPGTKSDSKFYESLEECLKILRELFARRPIWVKRHLDGIVPKKIHHTMKIALALISYRFTMGPWRNTYIKFGIDPRSSVEYAQYQTEYFKIERKLLSSPIVKKNVPKPPPLVFESDTPGGIDSRFKFDGKRIPWYLMLQIDLLIGEPNIAEVFHNVEYLDKANELTGWFKELDLVKIRRIVKYELGCMVQGNYEYNKYKLKYFKTMLFVKESMVPENKNSEEGMGVNTNKDADGDINMDAGSQMSSNAIEEDKGIAAGDDFDDNGAITEEPDDAALENEEMDTDQNLKVPASIDDDVDDVDADEEEQESFDVKTASFQDIINKIAKLDPKTAETMKSELKGFVDEVDL
B3: TFIIIC subunit τ131 (natural protein, S. cerevisiae, UniProt P33339 1-1025, looked up)
chain: MAAGKLKKEQQNQSAERESADTGKVNDEDEEHLYGNIDDYKHLIQDEEYDDEDVPHDLQLSEDEYNSERDSSLLAEFSDYGEISEDDEEDFMNAIREASNFKVKKKKKNDKGKSYGRQRKERVLDPEVAQLLSQANEAFVRNDLQVAERLFNEVIKKDARNFAAYETLGDIYQLQGRLNDCCNSWFLAAHLNASDWEFWKIVAILSADLDHVRQAIYCFSRVISLNPMEWESIYRRSMLYKKTGQLARALDGFQRLYMYNPYDANILRELAILYVDYDRIEDSIELYMKVFNANVERREAILAALENALDSSDEESAAEGEDADEKEPLEQDEDRQMFPDINWKKIDAKYKCIPFDWSSLNILAELFLKLAVSEVDGIKTIKKCARWIQRRESQTFWDHVPDDSEFDNRRFKNSTFDSLLAAEKEKSYNIPIDIRVRLGLLRLNTDNLVEALNHFQCLYDETFSDVADLYFEAATALTRAEKYKEAIDFFTPLLSLEEWRTTDVFKPLARCYKEIESYETAKEFYELAIKSEPDDLDIRVSLAEVYYRLNDPETFKHMLVDVVEMRKHQVDETLHRISNEKSSNDTSDISSKPLLEDSKFRTFRKKKRTPYDAERERIERERRITAKVVDKYEKMKKFELNSGLNEAKQASIWINTVSELVDIFSSVKNFFMKSRSRKFVGILRRTKKFNTELDFQIERLSKLAEGDSVFEGPLMEERVTLTSATELRGLSYEQWFELFMELSLVIAKYQSVEDGLSVVETAQEVNVFFQDPERVKMMKFVKLAIVLQMDDEEELAENLRGLLNQFQFNRKVLQVFMYSLCRGPSSLNILSSTIQQKFFLRQLKAFDSCRYNTEVNGQASITNKEVYNPNKKSSPYLYYIYAVLLYSSRGFLSALQYLTRLEEDIPDDPMVNLLMGLSHIHRAMQRLTAQRHFQIFHGLRYLYRYHKIRKSLYTDLEKQEADYNLGRAFHLIGLVSIAIEYYNRVLENYDDGKLKKHAAYNSIIIYQQSGNVELADHLMEKYLSI
B4: TFIIIC subunit τ91 (natural protein, S. cerevisiae, UniProt Q06339 1-672, looked up)
chain: MAVIPAKKRGRPRKSVVAEVPYDSLASPVSENSGSKRPRRNASKKAVANFAQLVHAGRDDVINTTQVNNVDDTDDDDFVLNDEGDGEESDNVEIEFENELESTKNEVADLNSSGSGASVRPSGRRNTVQKLRLKKNSTKNMKSSSPGSSLGQKGRPIRLLKDLSSARDKIERIYGLNKEKLLLLAKVKEGFETSVFDFPFKNIQPDSPYFVCLDPPCKKESAYNKVIGDKNRTVYHEINKTEFENMIKLRTKRLKLLIGEVDAEVSTGDKIEFPVLANGKRRGFIYNVGGLVTDIAWLNIEENTDIGKDIQYLAVAVSQYMDEPLNEHLEMFDKEKHSSCIQIFKMNTSTLHCVKVQTIVHSFGEVWDLKWHEGCHAPHLVGCLSFVSQEGTINFLEIIDNATDVHVFKMCEKPSLTLSLADSLITTFDFLSPTTVVCGFKNGFVAEFDLTDPEVPSFYDQVHDSYILSVSTAYSDFEDTVVSTVAVDGYFYIFNPKDIATTKTTVSRFRGSNLVPVVYCPQIYSYIYSDGASSLRAVPSRAAFAVHPLVSRETTITAIGVSRLHPMVLAGSADGSLIITNAARRLLHGIKNSSATQKSLRLWKWDYSIKDDKYRIDSSYEVYPLTVNDVSKAKIDAHGINITCTKWNETSAGGKCYAFSNSAGLLTLEYLS

Assays:
[1] = target: T1, TFIIIC subunit τ138; assay: cryo-EM structure
[2] = target: B3; assay: cryo-EM structure

| binding result [1] | binding result [2] | Binder |
| --- | --- | --- |
| binds |  | B1 |
| binds | binds | B2 |
| binds |  | B3 |
|  | binds | B4 |
